{
  "source": "patent US20240343811A1",
  "about": "(SHANDONG SIMCERE BIOPHARMACUTICAL, published 2024)",
  "key": {"[1]": {"molecular_target": "T1, human CD16a (158V), full length, on cells (human, UniProt P08637 17-254)", "T1 construct": "also used as target for the bought Jurkat-NFAT reporter line stably expressing human CD16a (158V); also called FlpinCHO-human CD16a (158V); FlpinCHO-CD16a (158V)", "T1 sequence (P08637 17-254 F176V limits assumed)": "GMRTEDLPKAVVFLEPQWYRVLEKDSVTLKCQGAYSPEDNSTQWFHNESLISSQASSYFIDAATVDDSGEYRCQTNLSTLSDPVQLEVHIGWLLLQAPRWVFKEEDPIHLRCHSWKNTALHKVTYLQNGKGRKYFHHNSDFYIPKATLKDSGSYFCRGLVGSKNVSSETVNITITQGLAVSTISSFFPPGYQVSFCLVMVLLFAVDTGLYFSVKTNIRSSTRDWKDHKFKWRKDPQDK", "test": "FACS, biotinylated antibody, +10 mg/mL human immunoglobulin"}, "[2]": {"molecular_target": "T2, human CD16a (158F), full length, on FlpinCHO cells (human, UniProt P08637 17-254)", "T2 sequence (P08637 17-254 limits assumed)": "as the sequence (P08637 17-254 F176V limits assumed) above, with V160F counted along it", "test": "FACS, biotinylated antibody, +10 mg/mL human immunoglobulin"}, "[3]": {"molecular_target": "T1, human CD16a (158V), full length, on …", "test": "cell-based or functional assay"}, "[4]": {"molecular_target": "T1, human CD16a (158V), full length, on …", "test": "FACS, biotinylated antibody"}, "[5]": {"molecular_target": "T2, human CD16a (158F), full length, on …", "test": "FACS, biotinylated antibody"}, "[6]": {"molecular_target": "T1, human CD16a (158V), full length, on …", "test": "cell-based or functional assay", "remark": "listed apart in the source"}, "[7]": {"molecular_target": "T3, Human CD16b (NA2)-his (human)", "T3 construct": "entry holds ECD, linker, His tag and AVI tag", "T3 chain": "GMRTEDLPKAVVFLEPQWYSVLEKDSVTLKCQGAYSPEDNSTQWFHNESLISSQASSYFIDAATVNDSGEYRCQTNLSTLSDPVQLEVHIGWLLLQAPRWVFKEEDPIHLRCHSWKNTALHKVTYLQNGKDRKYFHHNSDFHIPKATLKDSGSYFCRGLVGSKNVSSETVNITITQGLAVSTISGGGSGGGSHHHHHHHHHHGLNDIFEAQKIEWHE", "test": "SPR (Biacore), antibody captured on Protein A", "method_in_brief": "(§1)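 Protein A–captured antibody was probed with CD16-his ECD in HBS-EP+ at 25 °C: five 2-fold dilutions from 200 nM, 240 s at 30 μL/min, dissociation up to 600 s. Glycine pH 1.5 regenerated the chip. Apparent KD came from a double-referenced 1:1 Langmuir fit.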"}, "[8]": {"molecular_target": "T4, Human CD16b (SH)-his (human)", "T4 construct": "entry holds ECD, linker, His tag and AVI tag", "T4 chain": "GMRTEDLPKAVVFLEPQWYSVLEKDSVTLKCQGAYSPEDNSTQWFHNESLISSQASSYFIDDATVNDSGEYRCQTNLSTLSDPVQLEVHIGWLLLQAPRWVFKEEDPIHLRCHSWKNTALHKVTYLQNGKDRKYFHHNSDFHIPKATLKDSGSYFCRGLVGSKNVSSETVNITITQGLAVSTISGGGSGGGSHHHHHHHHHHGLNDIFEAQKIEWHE", "test": "SPR (Biacore), antibody captured on Protein A", "method_in_brief": "as §1"}, "[9]": {"molecular_target": "T5, Cynomolgus monkey CD16-his (cynomolgus monkey)", "T5 construct": "entry holds ECD, AVI tag, linker and His tag; also called cyno CD16-ECD his; Cyno CD16", "T5 chain": "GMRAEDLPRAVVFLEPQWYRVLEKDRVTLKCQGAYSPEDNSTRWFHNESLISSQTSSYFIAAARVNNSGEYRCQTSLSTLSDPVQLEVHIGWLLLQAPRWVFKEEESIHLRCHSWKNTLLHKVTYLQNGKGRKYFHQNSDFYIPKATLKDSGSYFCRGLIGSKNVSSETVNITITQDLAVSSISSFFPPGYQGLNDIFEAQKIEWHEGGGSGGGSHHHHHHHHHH", "test": "SPR (Biacore), antibody captured on Protein A", "method_in_brief": "as §1"}},
  "note": "Where two headings read alike, the source gives them in different places.",
  "data": [
    {"binder": "VHH06 VHH-Fc antibody (Fc fusion) EVQLVESGGGLVQAGGSLRLSCVASGSTWTTYAVRWYRQAPGKQREWVAFISVDGSTNYPDSVKGRFIVSRDNAKNTVYLQMNSLKPEDTADYICRVGGQYWGQGTQVTVSSEPKSSDKTHTCPPCPAPEFEGGPSVFLFPPKPKDTLMISRTPEVTCVVVAVSHEDPEVKFNWYVDGVEVHNAKTKPREEQYNSTYRVVSVLTVLHQDWLNGKEYKCKVSNKALPAPIEKTISKAKGQPREPQVYTLPPSREEMTKNQVSLTCLVKGFYPSDIAVEWESNGQPENNYKTTPPVLDSDGSFFLYSKLTVDKSRWQQGNVFSCSVMHEALHNHYTQKSLSLSPGK", "values": [
      {"measurement": "EC50", "setting": "[1]", "value": 1.77, "unit": "nM"},
      {"measurement": "Maximum mean fluorescence intensity", "setting": "[1]", "value": 14500},
      {"measurement": "EC50", "setting": "[2]", "value": 1.66, "unit": "nM"},
      {"measurement": "Maximum mean fluorescence intensity", "setting": "[2]", "value": 10700},
      {"measurement": "EC50, activation activity for Jurkat cell", "setting": "[3]", "value": 0.02, "unit": "nM"},
      {"measurement": "Maximum fluorescence value", "setting": "[3]", "value": 168000},
      {"measurement": "EC50", "setting": "[4]", "value": 0.79, "unit": "nM"},
      {"measurement": "Maximum mean fluorescence intensity", "setting": "[4]", "value": 13300},
      {"measurement": "EC50", "setting": "[5]", "value": 0.39, "unit": "nM"},
      {"measurement": "Maximum mean fluorescence intensity", "setting": "[5]", "value": 9740},
      {"measurement": "EC50, activation activity for Jurkat cell", "setting": "[6]", "value": 0.04, "unit": "nM"},
      {"measurement": "Maximum fluorescence value", "setting": "[6]", "value": 169000}
    ]},
    {"binder": "VHH11 VHH-Fc antibody (Fc fusion) EVQVVESGGGLAQAGGSLRLSCAVSGITFSSYAMGWYRQDPGKQRELVAAINRFGLTNYADSVKGRFTISRDNAKNTVYLQMTSLKPEDTAVYYCNTGGVYSHPNYYTGTYWGQGTQVTVSSEPKSSDKTHTCPPCPAPEFEGGPSVFLFPPKPKDTLMISRTPEVTCVVVAVSHEDPEVKFNWYVDGVEVHNAKTKPREEQYNSTYRVVSVLTVLHQDWLNGKEYKCKVSNKALPAPIEKTISKAKGQPREPQVYTLPPSREEMTKNQVSLTCLVKGFYPSDIAVEWESNGQPENNYKTTPPVLDSDGSFFLYSKLTVDKSRWQQGNVFSCSVMHEALHNHYTQKSLSLSPGK", "values": [
      {"measurement": "Kd", "setting": "[7]", "value": 4920, "unit": "nM"},
      {"measurement": "koff", "setting": "[7]", "value": 0.2, "unit": "s⁻¹"},
      {"measurement": "kon", "setting": "[7]", "value": 40700, "unit": "M⁻¹ s⁻¹"},
      {"measurement": "Kd", "setting": "[8]", "value": 4930, "unit": "nM"},
      {"measurement": "koff", "setting": "[8]", "value": 0.193, "unit": "s⁻¹"},
      {"measurement": "kon", "setting": "[8]", "value": 39100, "unit": "M⁻¹ s⁻¹"},
      {"measurement": "Kd", "setting": "[9]", "value": 23.6, "unit": "nM"},
      {"measurement": "koff", "setting": "[9]", "value": 0.015, "unit": "s⁻¹"},
      {"measurement": "kon", "setting": "[9]", "value": 633000, "unit": "M⁻¹ s⁻¹"},
      {"measurement": "EC50", "setting": "[1]", "value": 1.12, "unit": "nM"},
      {"measurement": "Maximum mean fluorescence intensity", "setting": "[1]", "value": 10800},
      {"measurement": "EC50", "setting": "[2]", "value": 0.75, "unit": "nM"},
      {"measurement": "Maximum mean fluorescence intensity", "setting": "[2]", "value": 6720},
      {"measurement": "EC50", "setting": "[4]", "value": 0.36, "unit": "nM"},
      {"measurement": "Maximum mean fluorescence intensity", "setting": "[4]", "value": 10700},
      {"measurement": "EC50", "setting": "[5]", "value": 0.2, "unit": "nM"},
      {"measurement": "Maximum mean fluorescence intensity", "setting": "[5]", "value": 7240},
      {"measurement": "EC50, activation activity for Jurkat cell", "setting": "[6]", "value": 0.03, "unit": "nM"},
      {"measurement": "Maximum fluorescence value", "setting": "[6]", "value": 166000}
    ]},
    {"binder": "VHH12 VHH-Fc antibody (Fc fusion) QVQLVESGGGLVQAGGSLRLSCAASGITFSSYAMGWYRQAPGKQRELVAAINRFGLTNYADFVKGRFTISRVNAKNTVYLQMTSLKPEDTAVYYCNTGGVYSHPDYYTGTYWGQGTQVTVSSEPKSSDKTHTCPPCPAPEFEGGPSVFLFPPKPKDTLMISRTPEVTCVVVAVSHEDPEVKFNWYVDGVEVHNAKTKPREEQYNSTYRVVSVLTVLHQDWLNGKEYKCKVSNKALPAPIEKTISKAKGQPREPQVYTLPPSREEMTKNQVSLTCLVKGFYPSDIAVEWESNGQPENNYKTTPPVLDSDGSFFLYSKLTVDKSRWQQGNVFSCSVMHEALHNHYTQKSLSLSPGK", "values": [
      {"measurement": "Kd", "setting": "[7]", "value": 1050, "unit": "nM"},
      {"measurement": "koff", "setting": "[7]", "value": 0.0998, "unit": "s⁻¹"},
      {"measurement": "kon", "setting": "[7]", "value": 95100, "unit": "M⁻¹ s⁻¹"},
      {"measurement": "Kd", "setting": "[8]", "value": 1160, "unit": "nM"},
      {"measurement": "koff", "setting": "[8]", "value": 0.106, "unit": "s⁻¹"},
      {"measurement": "kon", "setting": "[8]", "value": 91500, "unit": "M⁻¹ s⁻¹"},
      {"measurement": "Kd", "setting": "[9]", "value": 8.51, "unit": "nM"},
      {"measurement": "koff", "setting": "[9]", "value": 0.0101, "unit": "s⁻¹"},
      {"measurement": "kon", "setting": "[9]", "value": "1.18e+06", "unit": "M⁻¹ s⁻¹"},
      {"measurement": "EC50", "setting": "[1]", "value": 0.97, "unit": "nM"},
      {"measurement": "Maximum mean fluorescence intensity", "setting": "[1]", "value": 8140},
      {"measurement": "EC50", "setting": "[2]", "value": 0.81, "unit": "nM"},
      {"measurement": "Maximum mean fluorescence intensity", "setting": "[2]", "value": 5310},
      {"measurement": "EC50, activation activity for Jurkat cell", "setting": "[3]", "value": 0.01, "unit": "nM"},
      {"measurement": "Maximum fluorescence value", "setting": "[3]", "value": 142000},
      {"measurement": "EC50", "setting": "[4]", "value": 0.16, "unit": "nM"},
      {"measurement": "Maximum mean fluorescence intensity", "setting": "[4]", "value": 7950},
      {"measurement": "EC50", "setting": "[5]", "value": 0.12, "unit": "nM"},
      {"measurement": "Maximum mean fluorescence intensity", "setting": "[5]", "value": 5410},
      {"measurement": "EC50, activation activity for Jurkat cell", "setting": "[6]", "value": 0.02, "unit": "nM"},
      {"measurement": "Maximum fluorescence value", "setting": "[6]", "value": 165000}
    ]}
  ]
}
